Patent US20170204158A1 (Regeneron, published 2017)

Legend:
[1] = molecular target: T1, human IL-33 (R&D Systems, # 3625-IL-010/CF) (human, UniProt O95760 112-270, biotinylated in the blocking ELISA of Example 3 (sites not given)); experiment: cell-based or functional assay
T1 sequence (looked up): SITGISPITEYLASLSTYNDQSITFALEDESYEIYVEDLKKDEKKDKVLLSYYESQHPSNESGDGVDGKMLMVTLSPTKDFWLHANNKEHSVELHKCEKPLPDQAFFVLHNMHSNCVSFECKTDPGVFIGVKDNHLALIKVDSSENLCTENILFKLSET

[2] = molecular target: T1, human IL-33 (R&D Systems, # …); experiment: SPR (Biacore T-200), 25 C; Fc fusion captured by anti-Fc antibody, IL-33 injected
Description: (§1) The Biacore sensor surface was first derivatized by amine coupling a polyclonal rabbit anti-mouse antibody (GE, # BR-1008-38) or with a monoclonal mouse anti-human Fc antibody (GE, # BR-1008-39) to capture IL-33 Trap and receptor proteins with a C-terminal mouse IgG2a Fc tag or a C-terminal human IgG1 Fc tag, respectively. Kinetic experiments were carried out in 0.01 M HEPES pH 7.4, 0.15 M NaCl, 3 mM EDTA, and 0.005% v/v Surfactant Tween-20 (HBST running buffer). Different concentrations of human IL-33, mouse IL-33 or MfIL-33-6His prepared in HBST running buffer (ranging from 60 nM to 27.4 pM, 3-fold dilutions, for Trap proteins and ranging from 60 nM to 0.25 nM, 3-fold dilutions, for ST2 receptor proteins) were injected over the captured IL-33 Trap and receptor protein surfaces at a flow rate of 50 μL/minute. Association of different IL-33 proteins to the different capture surfaces was monitored for 7 minutes for Trap proteins or 4 minutes for ST2 receptor proteins and their dissociation in HBST running buffer was monitored for 14 minutes for Trap proteins or 8 minutes for ST2 receptor proteins. Kinetic association (ka) and dissociation (kd) rate constants were determined by fitting the real-time binding sensorgrams to a 1:1 binding model using Scrubber 2.0c curve-fitting software. Binding dissociation equilibrium constants (KD) and dissociative half-lives (t½) were calculated from the kinetic rate constants as: […]

[3] = molecular target: T2, mouse IL-33 (R&D Systems, # 3626-ML-010/CF) (mouse, UniProt Q8BVZ5 109-266); experiment: SPR (Biacore T-200), 37 C; Fc fusion captured by anti-Fc antibody, mouse IL-33 injected
T2 construct: Commercial protein; also called mIL-33; mIL33
T2 sequence (looked up): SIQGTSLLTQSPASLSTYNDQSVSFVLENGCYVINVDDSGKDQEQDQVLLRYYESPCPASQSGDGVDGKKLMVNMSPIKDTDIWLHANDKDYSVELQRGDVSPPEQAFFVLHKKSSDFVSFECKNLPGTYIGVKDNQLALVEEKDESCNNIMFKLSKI
Description: as §1

[4] = molecular target: T3, monkey IL-33 expressed with C-terminal hexahistidine tag (MfIL-33-6His) (cynomolgus monkey (M. fascicularis)); experiment: SPR (Biacore T-200), 25 C; Fc fusion captured by anti-Fc antibody, MfIL-33-6His injected
T3 construct: also called M. fascicularis IL-33-6His; cynomolgus monkey IL-33
T3 chain: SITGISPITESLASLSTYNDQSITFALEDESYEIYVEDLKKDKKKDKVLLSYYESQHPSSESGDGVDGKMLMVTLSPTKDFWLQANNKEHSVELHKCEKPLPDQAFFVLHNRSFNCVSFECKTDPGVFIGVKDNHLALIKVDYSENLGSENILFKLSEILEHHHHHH
Description: as §1

[5] = molecular target: T3, monkey IL-33 expressed with C-terminal …; experiment: SPR (Biacore T-200), 37 C; Fc fusion captured by anti-Fc antibody, MfIL-33-6His injected
Description: as §1

IC50 (M), inhibition of 5 pM human IL-33 activation of HEK293/hST2/NFkB-luciferase cells [1]: 1.3e-12 M
IC50 (M), inhibition of 20 pM human IL-33 activation of HEK293/hST2/NFkB-luciferase cells [1]: 1.3e-11 M
60 nM Human IL-33 Bound (RU) [2]: 28 RU
Kd [2]: 3.29 pM
koff [2]: 6.32e-05 s⁻¹
kon [2]: 1.92e+07 M⁻¹ s⁻¹
t1/2 [2]: 3.05 h
60 nM Mouse IL-33 Bound (RU) [3]: 21 RU
Kd [3]: 93.3 pM
koff [3]: 0.000317 s⁻¹
kon [3]: 3.39e+06 M⁻¹ s⁻¹
t1/2 [3]: 0.6 h
60 nM Monkey IL-33 Bound (RU) [4]: 28 RU
Kd [4]: 3.13 pM
koff [4]: 4.09e-05 s⁻¹
kon [4]: 1.31e+07 M⁻¹ s⁻¹
t1/2 [4]: 4.7 h
60 nM Monkey IL-33 Bound (RU) [5]: 27 RU
Kd [5]: 3.29 pM
koff [5]: 4.79e-05 s⁻¹
kon [5]: 1.45e+07 M⁻¹ s⁻¹
t1/2 [5]: 4.02 h
B1: hST2-hIL1RAcP-mFc (Fc fusion)
chain: KFSKQSWGLENEALIVRCPRQGKPSYTVDWYYSQTNKSIPTQERNRVFASGQLLKFLPAAVADSGIYTCIVRSPTFNRTGYANVTIYKKQSDCNVPDYLMYSTVSGSEKNSKIYCPTIDLYNWTAPLEWFKNCQALQGSRYRAHKSFLVIDNVMTEDAGDYTCKFIHNENGANYSVTATRSFTVKDEQGFSLFPVIGAPAQNEIKEVEIGKNANLTCSACFGKGTQFLAAVLWQLNGTKITDFGEPRIQQEEGQNQSFSNGLACLDMVLRIADVKEEDLLLQYDCLALNLHGLRRHTVRLSRKNPIDHHSSERCDDWGLDTMRQIQVFEDEPARIKCPLFEHFLKFNYSTAHSAGLTLIWYWTRQDRDLEEPINFRLPENRISKEKDVLWFRPTLLNDTGNYTCMLRNTTYCSKVAFPLEVVQKDSCFNSPMKLPVHKLYIEYGIQRITCPNVDGYFPSSVKPTITWYMGCYKIQNFNNVIPEGMNLSFLIALISNNGNYTCVVTYPENGRTFHLTRTLTVKVVGSPKNAVPPVIHSPNDHVVYEKEPGEELLIPCTVYFSFLMDSRNEVWWTIDGKKPDDITIDVTINESISHSRTEDETRTQILSIKKVTSEDLKRSYVCHARSAKGEVAKAAKVKQKVPAPRYTVESGEPRGPTIKPCPPCKCPAPNLLGGPSVFIFPPKIKDVLMISLSPIVTCVVVDVSEDDPDVQISWFVNNVEVHTAQTQTHREDYNSTLRVVSALPIQHQDWMSGKEFKCKVNNKDLPAPIERTISKPKGSVRAPQVYVLPPPEEEMTKKQVTLTCMVTDFMPEDIYVEWTNNGKTELNYKNTEPVLDSDGSYFMYSKLRVEKKNWVERNSYSCSVVHEGLHNHHTTKSFSRTPGK
notes: also called third IL-33 antagonist; human IL-33 Trap
